Test results: the RNAGym collection of RNA variant scans (doi:10.1073/pnas.2313332121)

B1: TPR t1 (parent)
chain: GACCAAUCUGCCCUCAGAGCUCGAGAACAUCUUCGGAUGCAGAGGAGGCAGGCUUCGGUGGCGCGAUAGCGCCAACGUCCUCAACCUCCAAUGCAUCCCACCACAUGAUGAUGCCUGAAGAGCCUUGGUUUUUUG

Variants of: B1
Experiment: polymerase ribozyme fitness, log enrichment relative to wild type (log ratio); higher = more active; in vitro selection for triplet polymerase activity
How it was run: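 Each subunit of a heterodimeric triplet polymerase ribozyme was mutagenized into a library by PCR, transcribed, and subjected to one round of in vitro selection, run in triplicate. Libraries were annealed with a biotinylated primer, the partner subunit and triplets, incubated frozen at −7 °C, and extended constructs were gel-excised, captured on streptavidin beads and recovered by RT-PCR. Input and output libraries were sequenced on Illumina, keeping genotypes with ≥10 input reads and ≥1 read per output. Fitness is log base 2 of genotype enrichment divided by wild-type enrichment, from inverse-variance-weighted replicate averages.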

Row | Variant | polymerase ribozyme fitness (log ratio)
1 | GACCAAUCUGCCCUCAGAGCUCGAGAACAUCUUCGGAUGCAGAGGAGGCAGGCUUCGGUGGCGCGAUAGCCCCAACGUCCUCAACCUCCAAUGCAUCCCACCACAUGAUGAUGCCUGAAGAGCCUUGGUUUUAUG [G71C U133A] | -0.636
2 | GACCAAUCUGCCCUCAGAGCUCGAGAACAUCUUCGGAUGCAGAGGAGGCAGGCUUCGGUGGCGCGAUAGCUCCAACGUCCUAAACCUCCAAUGCAUCCCACCACAUGAUGAUGCCUGAAGAGCCUUGGUUUUUUG [G71U C82A] | -1.91
3 | GACCAAUCUGCCCUCAGAGCUCGAGAACAUCUUCGGAUGCAGAGGAGGCAGGCUUCGGUGGCGCGAUAGCUCCAACGUCCUCAACCUCCAAUGCAUCCCACCACAUGAUGAUGCCUAAAGAGCCUUGGUUUUUUG [G71U G117A] | -1.51
4 | GACCAAUCUGCCCUCAGAGCUCGAGAACAUCUUCGGAUGCAGAGGAGGCAGGCUUCGGUGGCGCGAUAGCUCCAACGUCCUCAACCUCCAAUGCAUCCCACUACAUGAUGAUGCCUGAAGAGCCUUGGUUUUUUG [G71U C102U] | -1.69
5 | GACCAAUCUGCCCUCAGAGCUCGAGAACAUCUUCGGAUGCAGAGGAGGCAGGCUUCGGUGGCGCGAUAGCUCCAACGUCCGCAACCUCCAAUGCAUCCCACCACAUGAUGAAGCCUGAAGAGCCUUGGUUUUUUG [G71U U81G U112A] | -5.24
6 | GACCAAUCUGCCCUCAGAGCUCGAGAACAUCUUCGGAUGCAGAGGAGGCAGGCUUCGGUGGCGCGAUAGCUCCAACGUCCUCAACCUCCAAUGCAUCCCACCACAUGAUGAUGCCUGAAGAGCCUUGUUUUUUUG [G71U G128U] | -2.61
7 | GACCAAUCUGCCCUCAGAGCUCGAGAACAUCUUCGGAUGCAGAGGAGGCAGGCUUCGGUGGCGCGAUAGCUCCAACGUCCUCUACCUCCAAUGCAUCCCACCACAUGAUGAUGCCUGAAGAGCCUUGGUUUUUUG [G71U A83U] | -0.358
8 | GACCAAUCUGCCCUCAGAGCUCGAGAACAUCUUCGGAUGCAGAGGAGGCAGGCUUCGGUGGCGCGAUAGCUCCAACGUCCUCAACCUCCAAUACAUCCCACCAUAUGAUGAUGCCUGAAGAGCCUUGGUUUUUUG [G71U G93A C104U] | -0.466
9 | GACCAAUCUGCCCUCAGAGCUCGAGAACAUCUUCGGAUGCAGAGGAGGCAGGCUUCGGUGGCGCGAUAGCCCCAACGUCCGCAACCUCCAAUGCAUUCCACCACAAGAUGAUGCCUGAAAAGCCUUGGUUUUUUG [G71C U81G C97U U106A G120A] | -3.76
10 | GACCAAUCUGCCCUCAGAGCUCGAGAACAUCUUCGGAUGCAGAGGAGGCAGGCUUCGGUGGCGCGAUAGCUCCAACGUCCUCAACCUCCAAUGCAUCCCACCACAUGAUGAUGGCUGAAGAGCCUUGGUUUUUUG [G71U C114G] | -2.81
11 | GACCAAUCUGCCCUCAGAGCUCGAGAACAUCUUCGGAUGCAGAGGAGGCAGGCUUCGGUGGCGCGAUAGCUCCAACGUCCUCAACCUCCAAAUCAUCCCACCACAUGAUGAUGCCUGAAGAGCCUUGGUUUUUUG [G71U U92A G93U] | -3.61
12 | GACCAAUCUGCCCUCAGAGCUCGAGAACAUCUUCGGAUGCAGAGGAGGCAGGCUUCGGUGGCGCGAUAGCUCCAACGCCCUCAACCUCCAAUGCAUCUCACCACAUGAUGAUGCCUGAUGAGCCUUGGUUUUUUG [G71U U78C C98U A119U] | -1.19
13 | GACCAAUCUGCCCUCAGAGCUCGAGAACAUCUUCGGAUGCAGAGGAGGCAGGCUUCGGUGGCGCGAUAGCUCCAACGUCCUCAACCUCCAAUGCAUCCCACCACAUGAUGAUCCCUGAAGAGCCUUGGUUUUUUG [G71U G113C] | -1.47
14 | GACCAAUCUGCCCUCAGAGCUCGAGAACAUCUUCGGAUGCAGAGGAGGCAGGCUUCGGUGGCGCGAUAGCUCCAACGUCCUCAACCUCCAAUGCAUCCCACCACAUGAUGAUUCCUGAAGAGCCUUGGUUUUUUG [G71U G113U] | -1.67
15 | GACCAAUCUGCCCUCAGAGCUCGAGAACAUCUUCGGAUGCAGAGGAGGCAGGCUUCGGUGGCGCGAUAGCCCCAACGUCCUCAACCUCCAAUGCAUCCCACCACAUGAUGACGCCUGAAGAGCCUUGGUUUUUUG [G71C U112C] | -0.487
16 | GACCAAUCUGCCCUCAGAGCUCGAGAACAUCUUCGGAUGCAGAGGAGGCAGGCUUCGGUGGCGCGAUAGCUCCAACGUCCUCAACCUCCAAUGCACCCCACCACAUGAUGAUGCCUGAAGAGCCUUGGUUUUUUG [G71U U96C] | -0.38
17 | GACCAAUCUGCCCUCAGAGCUCGAGAACAUCUUCGGAUGCAGAGGAGGCAGGCUUCGGUGGCGCGAUAGCUCCAACGUCCUCAACCUCCAAUGCAUCCCUCCACAUGAUGAUGCCUGAAGAGCCUUGGUUUUUUG [G71U A100U] | -1.2
18 | GACCAAUCUGCCCUCAGAGCUCGAGAACAUCUUCGGAUGCAGAGGAGGCAGGCUUCGGUGGCGCGAUAGCUCCAACGUCCUCAACCUCCAUUGCACCCCACCACAUGAUGAUGCCUGAAGAGCCUUGGUUUUUUG [G71U A91U U96C] | -3.7
19 | GACCAAUCUGCCCUCAGAGCUCGAGAACAUCUUCGGAUGCAGAGGAGGCAGGCUUCGGUGGCGCGAUAGCUCCAACGUCCUCAACCUCCAAUGCAUCCCACCACAUGAUGAUGCCUGAAGGGCCAUGGUUUUUUG [G71U A121G U125A] | 1.48
20 | GACCAAUCUGCCCUCAGAGCUCGAGAACAUCUUCGGAUGCAGAGGAGGCAGGCUUCGGUGGCGCGAUAGCUCCAACGUCCUCAACCUCCAAUGCAUCCCACCACAUGAUGAUCUCUGAAGAGCCUUGAUUUUUUG [G71U G113C C114U G128A] | -3.3
21 | GACCAAUCUGCCCUCAGAGCUCGAGAACAUCUUCGGAUGCAGAGGAGGCAGGCUUCGGUGGCGCGAUAGCUCCAACGUCCUCAACCUCCAAUGUAUCCCACCACAUGAUGAUGCCUCAAGAGCCUUGGUUUUUUG [G71U C94U G117C] | -3.99
